We go through 8 molecules from patent EP1876240B1 (MOCHIDA PHARMACEUTICAL CO., LTD., dated 2012).

Changes are numbered by the printed parent chain.

The target of assay [1] is T1, human GPVI extracellular region-human Fc fusion protein (hGPVI-hFc) (human).
T1 construct: expressed in COS-1, Protein A purified; also called GPVI-HHH-hFc; hGPVIHHH-hFc
Kind of assay: SPR (BIACORE3000) as in Example 5. A general note: SPR reads the build-up and loss of mass on a sensor chip optically.

In assay [2] the target is cynomolgus monkey D1D2-human D3 chimeric GPVI-human Fc fusion protein (GPVI-FFH-hFc) (cynomolgus monkey (D1, D2) and human …). Kind of assay: SPR (BIACORE3000), GPVI-hFc coupled to CM5 chip, antibody 1.25-40 nM, bivalent analyte fit.
Assay [3] concerns the target T1, human GPVI extracellular region-human …. The description is as above.
Target sequence in this assay (chain, as listed by the source limits assumed): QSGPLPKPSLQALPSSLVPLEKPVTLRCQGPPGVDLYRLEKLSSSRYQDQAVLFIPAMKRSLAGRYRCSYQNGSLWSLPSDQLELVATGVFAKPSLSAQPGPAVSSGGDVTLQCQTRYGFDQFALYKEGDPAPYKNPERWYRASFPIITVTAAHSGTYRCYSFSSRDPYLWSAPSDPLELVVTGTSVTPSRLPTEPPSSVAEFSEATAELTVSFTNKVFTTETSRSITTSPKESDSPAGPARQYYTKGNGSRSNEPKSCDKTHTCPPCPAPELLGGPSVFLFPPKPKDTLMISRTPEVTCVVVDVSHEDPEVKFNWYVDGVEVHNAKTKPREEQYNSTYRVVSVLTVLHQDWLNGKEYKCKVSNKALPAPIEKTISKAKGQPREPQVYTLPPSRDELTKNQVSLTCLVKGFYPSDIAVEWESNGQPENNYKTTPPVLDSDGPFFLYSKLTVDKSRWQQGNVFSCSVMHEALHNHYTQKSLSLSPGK
Assay [4] concerns the target T2, GPVI on cynomolgus monkey platelets (cynomolgus monkey, UniProt A0A2K5VXN2 21-318).
T2 construct: whole, on cells; also called simian platelets
Kind of assay: homologous competitive binding of [125I]-labeled and non-labeled antibody on washed cynomolgus platelets (n=3, mean±S.E.).

The target of assay [5] is T3, GPVI on human platelets (human, UniProt Q9HCN6 21-339).
T3 construct: whole, on cells
T3 sequence (looked up): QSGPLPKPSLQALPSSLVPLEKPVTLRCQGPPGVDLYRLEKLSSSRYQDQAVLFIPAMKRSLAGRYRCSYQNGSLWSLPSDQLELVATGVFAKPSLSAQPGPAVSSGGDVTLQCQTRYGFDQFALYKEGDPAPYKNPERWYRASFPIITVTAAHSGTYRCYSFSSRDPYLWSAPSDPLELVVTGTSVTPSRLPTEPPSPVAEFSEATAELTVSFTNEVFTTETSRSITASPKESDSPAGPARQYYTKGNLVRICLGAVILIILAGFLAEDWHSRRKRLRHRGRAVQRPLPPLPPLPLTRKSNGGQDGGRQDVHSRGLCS
Kind of assay: homologous competitive binding of [125I]-labeled and non-labeled antibody on washed human platelets (n=3, mean±S.E.).

Sequence of cynomolgus monkey D1D2-human D3 chimeric GPVI-human Fc fusion protein (GPVI-FFH-hFc) (cynomolgus monkey (D1, D2) and human …) (chain, as listed by the source mutant limits assumed): as the sequence (chain, as listed by the source limits assumed) above, with S2R, S61H, L78P, R166G, V181M, P442S counted along it
T2 sequence (A0A2K5VXN2 entry or part of it): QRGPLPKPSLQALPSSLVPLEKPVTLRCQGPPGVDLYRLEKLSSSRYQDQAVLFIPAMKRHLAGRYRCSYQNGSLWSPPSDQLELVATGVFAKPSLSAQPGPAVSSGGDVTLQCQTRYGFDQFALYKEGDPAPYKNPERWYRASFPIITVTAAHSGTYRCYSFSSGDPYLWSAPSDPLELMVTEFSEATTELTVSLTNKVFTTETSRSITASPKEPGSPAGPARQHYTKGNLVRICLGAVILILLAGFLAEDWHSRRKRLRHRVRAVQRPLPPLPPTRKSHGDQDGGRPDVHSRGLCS

B1: F1232-37-2 (antibody, V domains shown)
VH: VQLQQSGPELVRPGESVKISCKGSGYTFTDYAIHWVKLSHAKSLEWIGVISIYYDDTNYNQKFKGKATMTVDKSSSTAYLELARLTSEDSAIYYCARRRDSSGPYAMDYWGQGTSVTVSS
VL: DIVLTQSPASLAVSLGQRATISCRASESVDSYGNSFMHWYQQKPGQPPKLLIYRASNLESGIPARFSGSGSRTDFTLTINPVEADDVATYYCQQSNEDPYTFGGGTKLEIKR
notes: mouse monoclonal antibody from hybridoma; also called F1232-37-2 (whole antibody)
In the case of B1, the “KD (Relative value) against F1232-37-2” value in assay [1] was 1 relative to KD of F1232-37-2. Further, the Kd came out at 1 nM in assay [2] and 0.403 nM in assay [3].

B2: cF1232-37-2/CHO (antibody, V domains shown)
VH: B1 VH
VL: B1 VL
notes: also called cF1232-37-2 expressed by CHO cells
As to B2, the Kd stood at 20 nM in assay [4] and 17 nM in assay [5].

B3: F1249-3-2 (antibody, V domains shown)
VH: EVQLVESGGGLVKPGGSLKLSCAASGFTFSSYGMSWVRQTPDKRLEWVATISSGGSYTYYSDSVKGRFTISRDNAKNNLYLQLSSLKSQDTAIYYCARDSGYFDYWGQGTTLTVSS
VL: B1 VL with D1N, R54L, I62V, N80D, V87A, S95N, Y100R
Regarding B3, the “KD (Relative value) against F1232-37-2” value in assay [1] is 1.59 relative to KD of F1232-37-2.

B4: F1232-18-3 (antibody, V domains shown)
VH: VMLVESGGGLVKPGGSLKLSCAASGFTFSSYAMSWVRQTPEKRLEWVATISSGGSYTYYPDSVKGRFTISRDNAKNTLYLQMSSLRSADTAMYYCARDYGYFDYWGQGTTLTVSS
VL: B1 VL with S31N, N34I, I52F, A84T, E97T, Y100R
notes: mouse monoclonal antibody from hybridoma
As for B4, the results for the Kd in assay [2] and in assay [3] were 365 nM and 1.65 nM, respectively.

B5: F1232-7-1 (antibody, V domains shown)
VH: B1 VH with L80M
VL: B1 VL
notes: as for B4
In assay [2], B5 displayed a Kd of 343 nM.

B6: F1232-24-1 (antibody, V domains shown)
VH: VQLQQSGAELVRPGVSVKISCKGSGYTFTDYAMHWVKQSHAKSLEWIGVISTYYGDASYNQKFKGKATMTVDKSSSTAYMELARLTSEDSAIYYCARSYDYDPWFAYWGQGTLVTVSA
VL: B1 VL with S31N, N34I, A84T, E97K, Y100L, G104A, I110L
notes: as for B4
B6: the Kd in assay [2] turned out to be 0.71 nM; in assay [3], 0.25 nM.

B7: F1201-18 (antibody, V domains shown)
VH: VQLVESGGGLVKPGGSLKLSCAASGFTFSSYAMSWVRQTPEKRLEWVAIISSGGSYTYYPDSVKGRFTISRDNAKNTLYLHMSSLRSEDTAMYYCARQGGGYFDYWGQGTTLTVSS
VL: B1 VL with L58V, Y100P, G104A, I110L
notes: as for B4
On to B7, for which the Kd in assay [3] is 1.16 nM.

B8: F1232-17-1 (antibody, V domains shown)
VH: VQLVESGGDLVKPGGSLKLSCAASGFTFSSYGMSWVRQTPDKRLEWVATISSGGSYTYYPDNVKGRFTISRDNAKNTLYLQMSSLNSEDTAMYYCARQVYYFGSCDYWGQGTTLTVSS
VL: B1 VL with S31N, N34I, A84T, E97K, Y100W
notes: as for B4
On to B8, for which the values for the Kd in assay [2] and in assay [3] were 0.177 nM and 0.522 nM, respectively.
